Biological target: the molecule itself
Experiment: SEC; Superdex 200 Increase 10/300 GL; AAR 1.5 mg/mL; 50 mM Tris, 100 mM NaCl, 1 mM DTT, pH 7.4; without GdnHCl; oligomer of unstated size

B1: Acyl-ACP reductase (AAR) from Synechococcus elongatus PCC 7942, 6-His tagged recombinant (enzyme)
chain: MFGLIGHLTSLEQARDVSRRMGYDEYADQGLEFWSSAPPQIVDEITVTSATGKVIHGRYIESCFLPEMLAARRFKTATRKVLNAMSHAQKHGIDISALGGFTSIIFENFDLASLRQVRDTTLEFERFTTGNTHTAYVICRQVEAAAKTLGIDITQATVAVVGATGDIGSAVCRWLDLKLGVGDLILTARNQERLDNLQAELGRGKILPLEAALPEADFIVWVASMPQGVVIDPATLKQPCVLIDGGYPKNLGSKVQGEGIYVLNGGVVEHCFDIDWQIMSAAEMARPERQMFACFAEAMLLEFEGWHTNFSWGRNQITIEKMEAIGEASVRHGFQPLALAI
notes: Acyl-ACP reductase (AAR), Synechococcus elongatus PCC 7942, codon-optimized aar gene in pQE30; domains described as NTD 1-130, mid-domain 131-264, CTD 265-341; also called Acyl-acyl carrier protein reductase; source: E. coli M15 (pQE30AAR), purified from the soluble fraction (Ni-NTA, gel filtration)
  binding result: binds
